This experiment has as its target T1, Drosophila SUMO-TRAX (WT) (Drosophila, UniProt Q9VF77 1-298).
T1 sequence (looked up): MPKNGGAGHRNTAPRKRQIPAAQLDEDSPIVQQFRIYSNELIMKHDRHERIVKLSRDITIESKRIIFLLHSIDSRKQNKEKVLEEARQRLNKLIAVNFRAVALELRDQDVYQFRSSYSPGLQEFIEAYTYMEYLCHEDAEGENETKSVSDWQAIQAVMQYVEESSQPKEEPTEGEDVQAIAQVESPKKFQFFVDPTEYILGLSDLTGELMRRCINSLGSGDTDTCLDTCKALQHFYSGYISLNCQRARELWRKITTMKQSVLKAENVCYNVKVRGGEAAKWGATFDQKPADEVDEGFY
The experiment is described as follows: cryo-EM structure.

B1: Drosophila Translin (natural protein, UniProt Q7JVK6 1-235, looked up)
chain: MSNFVNLDIFSNYQKYIDNEQEVRENIRIVVREIEHLSKEAQIKLQIIHSDLSQISAACGLARKQVELCAQKYQKLAELVPAGQYYRYSDHWTFITQRLIFIIALVIYLEAGFLVTRETVAEMLGLKISQSEGFHLDVEDYLLGILQLASELSRFATNSVTMGDYERPLNISHFIGDLNTGFRLLNLKNDGLRKRFDALKYDVKKIEEVVYDVSIRGLSSKEKDQQEEPAVPATE
One may read the stoichiometry N as the number of molecules, sites or subunits per partner or assembly. For B1, the “stoichiometry N” value was 1 TRAX per Translin (4:4).
